From paper PMC11633186

Target: VisAG5 (S. gordonii VisA region containing its 7 G5 domains, residues 138-698, C-terminal His-tag) (Streptococcus gordonii DL1)
Assay: SDS-PAGE and western blot against the His-tag (denaturing); purified VisAG5 in Laemmli buffer with 2.5% betamercaptoethanol; size of the band

A stoichiometry N of 2 was found for “VisAG5 (S. gordonii VisA region containing its 7 G5 domains, residues 138-698, C-terminal His-tag) (domain or fragment)” in this work.
